Data from IntAct's records for PubMed 19379695.

B1: E3 ubiquitin-protein ligase SMURF2 (Mus musculus), A2A5Z6 (parent)
chain: MSNPGGRRNGPVKLRLTVLCAKNLVKKDFFRLPDPFAKVVVDGSGQCHSTDTVKNTLDPKWNQHYDLYIGKSDSVTISVWNHKKIHKKQGAGFLGCVRLLSNAINRLKDTGYQRLDLCKLGPNDNDTVRGQIVVSLQSRDRIGTGGQVVDCSRLFDNDLPDGWEERRTASGRIQYLNHITRTTQWERPTRPASEYSSPGRPLSCFVDENTPITGTNGATCGHSSDPRLAERRVRSQRHRNYMSRTHLHTPPDLPEGYEQRTTQQGQVYFLHTQTGVSTWHDPRVPRDLSNINCEELGPLPPGWEIRNTATGRVYFVDHNNRTTQFTDPRLSANLHLVLNRQNQLKDQQQQQVVPLCPDDTECLTVPRYKRDLVQKLKILRQELSQQQPQAGHCRIEVSREEIFEESYRQVMKMRPKDLWKRLMIKFRGEEGLDYGGVAREWLYLLSHEMLNPYYGLFQYSRDDIYTLQINPDSAVNPEHLSYFHFVGRIMGMAVFHGHYIDGGFTLPFYKQLLGKSITLDDMELVDPDLHNSLVWILENDITGVLDHTFCVEHNAYGEIIQHELKPNGKSIPVTEENKKEYVRLYVNWRFLRGIEAQFLALQKGFNEVIPQHLLKTFDEKELELIICGLGKIDVSDWKVNTRLKHCTPDSNVVKWFWKAVEFFDEERRARLLQFVTGSSRVPLQGFKALQGAAGPRLFTIHQIDACTNNLPKAHTCFNRIDIPPYESYEKLYEKLLTAIEETCGFAVE
partner: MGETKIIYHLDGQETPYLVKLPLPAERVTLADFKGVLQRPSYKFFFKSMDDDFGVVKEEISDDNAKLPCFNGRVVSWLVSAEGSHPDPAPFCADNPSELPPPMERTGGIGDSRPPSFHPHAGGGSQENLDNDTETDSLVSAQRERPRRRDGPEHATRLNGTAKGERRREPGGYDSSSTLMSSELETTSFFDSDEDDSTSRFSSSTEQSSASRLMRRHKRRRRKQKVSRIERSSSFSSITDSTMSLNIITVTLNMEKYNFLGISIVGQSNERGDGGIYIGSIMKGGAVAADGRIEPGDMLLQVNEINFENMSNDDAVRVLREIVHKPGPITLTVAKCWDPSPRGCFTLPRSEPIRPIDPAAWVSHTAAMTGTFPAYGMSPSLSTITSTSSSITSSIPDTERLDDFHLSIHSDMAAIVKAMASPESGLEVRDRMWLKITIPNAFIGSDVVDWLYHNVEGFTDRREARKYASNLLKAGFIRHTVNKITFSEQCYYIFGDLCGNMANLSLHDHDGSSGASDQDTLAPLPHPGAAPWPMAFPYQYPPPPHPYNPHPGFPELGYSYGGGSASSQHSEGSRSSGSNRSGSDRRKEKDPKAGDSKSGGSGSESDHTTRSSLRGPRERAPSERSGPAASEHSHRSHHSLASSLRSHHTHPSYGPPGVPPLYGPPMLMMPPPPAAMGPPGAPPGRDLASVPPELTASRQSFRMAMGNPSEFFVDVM
B2: E3 ubiquitin-protein ligase SMURF2 (Mus musculus), A2A5Z6 (parent)
chain: B1 chain
partner: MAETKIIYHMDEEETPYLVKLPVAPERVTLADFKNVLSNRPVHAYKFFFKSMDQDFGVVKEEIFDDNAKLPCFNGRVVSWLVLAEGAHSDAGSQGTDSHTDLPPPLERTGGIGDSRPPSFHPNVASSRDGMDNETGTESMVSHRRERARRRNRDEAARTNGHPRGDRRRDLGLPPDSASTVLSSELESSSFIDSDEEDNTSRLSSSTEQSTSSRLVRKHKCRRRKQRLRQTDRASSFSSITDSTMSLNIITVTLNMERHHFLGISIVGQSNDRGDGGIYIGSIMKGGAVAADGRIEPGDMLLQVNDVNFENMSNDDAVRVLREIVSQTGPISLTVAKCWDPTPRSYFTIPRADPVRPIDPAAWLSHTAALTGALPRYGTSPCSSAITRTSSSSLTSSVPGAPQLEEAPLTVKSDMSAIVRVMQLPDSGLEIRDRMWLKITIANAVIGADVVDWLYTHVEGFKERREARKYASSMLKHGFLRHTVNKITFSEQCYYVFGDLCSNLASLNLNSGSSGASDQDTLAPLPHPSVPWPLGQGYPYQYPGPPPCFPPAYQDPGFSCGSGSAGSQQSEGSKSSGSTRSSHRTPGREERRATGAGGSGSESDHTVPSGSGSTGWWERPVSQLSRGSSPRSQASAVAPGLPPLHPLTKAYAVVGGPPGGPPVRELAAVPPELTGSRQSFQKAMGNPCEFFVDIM
B3: E3 ubiquitin-protein ligase SMURF2 (Mus musculus), A2A5Z6 (parent)
chain: B1 chain
partner: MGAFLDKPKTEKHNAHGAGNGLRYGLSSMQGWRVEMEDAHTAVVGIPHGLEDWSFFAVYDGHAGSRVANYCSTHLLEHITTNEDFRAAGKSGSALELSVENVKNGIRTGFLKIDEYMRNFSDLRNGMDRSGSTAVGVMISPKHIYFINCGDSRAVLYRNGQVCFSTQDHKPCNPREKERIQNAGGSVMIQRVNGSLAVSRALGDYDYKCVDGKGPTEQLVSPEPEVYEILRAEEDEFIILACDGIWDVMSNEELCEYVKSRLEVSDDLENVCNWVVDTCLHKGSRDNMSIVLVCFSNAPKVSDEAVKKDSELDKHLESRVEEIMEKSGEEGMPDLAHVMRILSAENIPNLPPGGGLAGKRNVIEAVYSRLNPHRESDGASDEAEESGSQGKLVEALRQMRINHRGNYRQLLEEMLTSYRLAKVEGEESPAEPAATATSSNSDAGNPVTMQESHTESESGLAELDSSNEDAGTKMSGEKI
B4: E3 ubiquitin-protein ligase SMURF2 (Mus musculus), A2A5Z6 (parent)
chain: B1 chain
partner: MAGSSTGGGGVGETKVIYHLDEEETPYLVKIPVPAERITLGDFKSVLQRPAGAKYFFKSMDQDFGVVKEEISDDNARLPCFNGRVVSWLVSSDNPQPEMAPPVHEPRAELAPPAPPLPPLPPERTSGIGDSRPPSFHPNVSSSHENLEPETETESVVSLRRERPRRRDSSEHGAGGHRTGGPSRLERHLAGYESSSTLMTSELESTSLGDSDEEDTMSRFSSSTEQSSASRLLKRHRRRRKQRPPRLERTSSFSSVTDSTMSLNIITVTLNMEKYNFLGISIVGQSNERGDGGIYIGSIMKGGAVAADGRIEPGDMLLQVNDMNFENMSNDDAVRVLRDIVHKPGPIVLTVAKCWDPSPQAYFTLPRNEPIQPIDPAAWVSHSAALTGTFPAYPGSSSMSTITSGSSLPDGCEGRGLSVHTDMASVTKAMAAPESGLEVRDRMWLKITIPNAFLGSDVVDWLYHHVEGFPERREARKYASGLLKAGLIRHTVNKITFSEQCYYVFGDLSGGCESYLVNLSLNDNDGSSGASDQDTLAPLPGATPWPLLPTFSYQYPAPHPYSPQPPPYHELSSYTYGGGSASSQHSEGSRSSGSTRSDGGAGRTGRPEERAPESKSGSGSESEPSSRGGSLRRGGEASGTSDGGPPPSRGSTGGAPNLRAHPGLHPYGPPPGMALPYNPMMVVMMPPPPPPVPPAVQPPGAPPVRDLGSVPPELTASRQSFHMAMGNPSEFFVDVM
B5: E3 ubiquitin-protein ligase SMURF2 (Mus musculus), A2A5Z6 (parent)
chain: B1 chain
B6: E3 ubiquitin-protein ligase SMURF2 (Mus musculus), A2A5Z6 (parent)
chain: B1 chain
partner: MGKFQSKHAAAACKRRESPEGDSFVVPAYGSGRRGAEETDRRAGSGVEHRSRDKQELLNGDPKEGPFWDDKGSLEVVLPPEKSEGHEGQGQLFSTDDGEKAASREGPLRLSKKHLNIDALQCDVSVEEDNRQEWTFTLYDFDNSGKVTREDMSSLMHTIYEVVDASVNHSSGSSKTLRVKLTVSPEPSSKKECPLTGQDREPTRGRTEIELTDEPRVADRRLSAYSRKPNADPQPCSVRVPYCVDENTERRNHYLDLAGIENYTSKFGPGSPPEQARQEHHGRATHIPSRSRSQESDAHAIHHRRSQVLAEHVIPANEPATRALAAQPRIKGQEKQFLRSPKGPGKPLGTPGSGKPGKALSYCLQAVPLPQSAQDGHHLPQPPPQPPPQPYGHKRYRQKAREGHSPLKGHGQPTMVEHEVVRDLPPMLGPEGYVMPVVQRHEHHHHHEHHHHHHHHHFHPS
B7: Segment polarity protein dishevelled homolog DVL-2 (Homo sapiens), O14641 (parent)
chain: B4 partner

Variants of: B1
Conditions: with dvl3_human DVL3, Q92997

| Variant | effect of a mutation on the interaction |
| --- | --- |
| C716A | decreasing interaction |

Variants of: B2
Conditions: with dvl1_mouse Dvl1, P51141

| Variant | effect of a mutation on the interaction |
| --- | --- |
| C716A | decreasing interaction |

Variants of: B3
Conditions: with ppm1b_human PPM1B

| Variant | effect of a mutation on the interaction |
| --- | --- |
| C716A | decreasing interaction |

Variants of: B4
Conditions: with dvl2_human DVL2, O14641

| Variant | effect of a mutation on the interaction |
| --- | --- |
| C716A | decreasing interaction |

Variants of: B5
Conditions: with elav1_human ELAVL1, Q15717
elav1_human ELAVL1, Q15717, sequence (Q15717 whole entry): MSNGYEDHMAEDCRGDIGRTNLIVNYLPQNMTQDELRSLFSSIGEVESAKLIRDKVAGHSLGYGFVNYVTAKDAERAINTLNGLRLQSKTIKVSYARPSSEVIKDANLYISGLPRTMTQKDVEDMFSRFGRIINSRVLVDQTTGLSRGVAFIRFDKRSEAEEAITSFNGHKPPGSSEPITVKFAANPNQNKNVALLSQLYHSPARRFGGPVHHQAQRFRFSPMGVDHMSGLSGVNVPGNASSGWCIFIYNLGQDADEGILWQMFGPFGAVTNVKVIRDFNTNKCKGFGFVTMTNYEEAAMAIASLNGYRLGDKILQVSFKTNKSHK

| Variant | effect of a mutation on the interaction |
| --- | --- |
| C716A | decreasing interaction |

Variants of: B5
Conditions: with rac1_mouse Rac1, P63001

| Variant | effect of a mutation on the interaction |
| --- | --- |
| C716A | decreasing interaction |

Variants of: B5
Conditions: with tp53b_mouse Tp53bp1, P70399
tp53b_mouse Tp53bp1, P70399, sequence (P70399 whole entry): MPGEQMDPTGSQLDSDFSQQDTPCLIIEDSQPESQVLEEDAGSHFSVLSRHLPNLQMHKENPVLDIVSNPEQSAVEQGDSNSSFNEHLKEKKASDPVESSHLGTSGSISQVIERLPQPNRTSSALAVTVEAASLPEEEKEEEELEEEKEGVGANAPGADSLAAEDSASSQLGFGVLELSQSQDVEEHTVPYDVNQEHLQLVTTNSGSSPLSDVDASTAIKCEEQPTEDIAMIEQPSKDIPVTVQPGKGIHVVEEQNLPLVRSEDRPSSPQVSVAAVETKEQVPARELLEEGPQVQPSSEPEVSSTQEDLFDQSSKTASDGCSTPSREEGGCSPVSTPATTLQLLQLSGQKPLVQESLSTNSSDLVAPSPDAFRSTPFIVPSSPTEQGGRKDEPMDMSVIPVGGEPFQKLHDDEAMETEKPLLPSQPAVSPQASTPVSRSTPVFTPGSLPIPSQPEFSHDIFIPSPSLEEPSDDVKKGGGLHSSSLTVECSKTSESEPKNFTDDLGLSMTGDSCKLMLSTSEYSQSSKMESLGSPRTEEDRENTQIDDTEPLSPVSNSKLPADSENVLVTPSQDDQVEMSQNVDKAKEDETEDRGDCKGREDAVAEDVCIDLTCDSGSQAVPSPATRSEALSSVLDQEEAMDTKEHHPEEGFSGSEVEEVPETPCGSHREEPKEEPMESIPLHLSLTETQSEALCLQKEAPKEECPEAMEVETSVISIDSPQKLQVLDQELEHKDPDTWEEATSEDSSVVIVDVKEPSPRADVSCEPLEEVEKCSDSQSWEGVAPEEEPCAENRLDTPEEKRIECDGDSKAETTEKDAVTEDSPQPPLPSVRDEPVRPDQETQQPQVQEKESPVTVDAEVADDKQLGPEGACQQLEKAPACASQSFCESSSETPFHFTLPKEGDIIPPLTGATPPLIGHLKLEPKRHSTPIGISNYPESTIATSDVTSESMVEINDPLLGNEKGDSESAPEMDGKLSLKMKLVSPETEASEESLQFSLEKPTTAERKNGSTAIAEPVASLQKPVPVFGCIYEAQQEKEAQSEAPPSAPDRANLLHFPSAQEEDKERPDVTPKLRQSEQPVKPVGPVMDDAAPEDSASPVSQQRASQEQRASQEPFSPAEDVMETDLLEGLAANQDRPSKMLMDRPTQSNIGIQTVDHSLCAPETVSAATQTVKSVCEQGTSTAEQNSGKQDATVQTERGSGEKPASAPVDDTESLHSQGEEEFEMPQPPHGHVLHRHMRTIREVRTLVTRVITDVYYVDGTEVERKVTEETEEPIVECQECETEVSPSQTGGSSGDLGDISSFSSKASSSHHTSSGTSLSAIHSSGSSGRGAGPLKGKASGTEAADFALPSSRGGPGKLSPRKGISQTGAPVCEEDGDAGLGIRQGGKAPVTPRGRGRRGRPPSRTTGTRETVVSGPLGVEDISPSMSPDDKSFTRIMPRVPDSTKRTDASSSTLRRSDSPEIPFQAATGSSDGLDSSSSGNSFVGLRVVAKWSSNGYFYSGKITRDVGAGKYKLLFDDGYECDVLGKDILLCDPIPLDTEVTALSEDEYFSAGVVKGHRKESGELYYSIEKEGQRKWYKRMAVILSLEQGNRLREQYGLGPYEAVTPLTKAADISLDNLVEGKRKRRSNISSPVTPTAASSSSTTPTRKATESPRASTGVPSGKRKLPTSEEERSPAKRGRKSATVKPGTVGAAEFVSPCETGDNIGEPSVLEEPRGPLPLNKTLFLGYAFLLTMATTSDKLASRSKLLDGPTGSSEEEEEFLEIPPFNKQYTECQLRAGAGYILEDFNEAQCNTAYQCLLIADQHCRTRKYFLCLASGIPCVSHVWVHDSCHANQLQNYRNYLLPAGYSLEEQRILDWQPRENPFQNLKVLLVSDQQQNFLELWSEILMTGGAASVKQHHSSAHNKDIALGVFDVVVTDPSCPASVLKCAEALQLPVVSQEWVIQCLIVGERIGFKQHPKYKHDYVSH

| Variant | effect of a mutation on the interaction |
| --- | --- |
| C716A | decreasing interaction |

Variants of: B6
Conditions: with nkd2_mouse Nkd2, Q8VE28

| Variant | effect of a mutation on the interaction |
| --- | --- |
| C716A | decreasing interaction |

Variants of: B7
Conditions: with smuf2_mouse Smurf2, A2A5Z6

| Variant | effect of a mutation on the interaction |
| --- | --- |
| C501R | decreasing interaction |

Variants of: B7
Conditions: with smuf2_mouse Smurf2, A2A5Z6
Remark: another data set of the same source

| Variant | effect of a mutation on the interaction |
| --- | --- |
| E499G | decreasing interaction |
